# Reference: PMC12289001
# Biological target: T1, purified HAstV-8 virus particles (strain Yuc-8) (human astrovirus serotype 8 (HAstV-8), strain Yuc-8) (UniProt Q9IFX1)
# T1 sequence 1: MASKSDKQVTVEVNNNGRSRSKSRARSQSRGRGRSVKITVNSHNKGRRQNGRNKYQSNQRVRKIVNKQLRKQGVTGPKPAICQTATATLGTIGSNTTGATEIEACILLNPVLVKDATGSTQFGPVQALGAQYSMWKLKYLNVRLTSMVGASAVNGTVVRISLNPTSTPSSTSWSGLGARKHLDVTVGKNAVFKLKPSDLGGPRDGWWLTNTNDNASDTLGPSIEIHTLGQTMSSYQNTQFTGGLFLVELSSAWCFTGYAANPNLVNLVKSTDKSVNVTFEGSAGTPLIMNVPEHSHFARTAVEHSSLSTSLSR
# T1 sequence 2: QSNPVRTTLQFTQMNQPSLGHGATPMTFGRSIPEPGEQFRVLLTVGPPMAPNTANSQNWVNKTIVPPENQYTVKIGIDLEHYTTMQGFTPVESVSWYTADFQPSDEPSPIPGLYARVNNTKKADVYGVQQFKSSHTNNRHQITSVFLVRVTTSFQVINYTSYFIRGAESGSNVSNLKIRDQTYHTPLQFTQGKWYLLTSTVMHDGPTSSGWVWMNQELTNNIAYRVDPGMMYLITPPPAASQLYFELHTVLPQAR
# Chain of recombinant human FCGRT & B2M heterodimer protein (SinoBiological #CT009-H08H) (P55899 24-297): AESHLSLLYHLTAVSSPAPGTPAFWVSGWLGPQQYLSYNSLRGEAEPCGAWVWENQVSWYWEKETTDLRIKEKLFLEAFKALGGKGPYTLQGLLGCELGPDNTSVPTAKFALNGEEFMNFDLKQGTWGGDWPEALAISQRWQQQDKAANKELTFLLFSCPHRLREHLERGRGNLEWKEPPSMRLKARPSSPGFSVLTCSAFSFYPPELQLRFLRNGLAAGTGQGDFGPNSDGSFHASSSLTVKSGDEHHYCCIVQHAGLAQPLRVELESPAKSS
# Chain of recombinant human FCGRT & B2M heterodimer protein (SinoBiological #CT009-H08H) (P61769 21-119): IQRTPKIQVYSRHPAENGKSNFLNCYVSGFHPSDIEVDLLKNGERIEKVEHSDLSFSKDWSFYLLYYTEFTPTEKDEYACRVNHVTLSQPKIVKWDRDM
substance,measurement,value
recombinant human FCGRT & B2M heterodimer protein (SinoBiological #CT009-H08H) (from UniProt P55899 24-297; P61769 21-119) (receptor),FcRn concentration that lowers by 50% the infectivity of the WT chimeric HAstV-1/HAstV-8 virus in Caco-2 cells (neutralization assay with different concentrations of FcRn),100 ng/mL
